The data set can be described thus: self-splicing fitness, log relative to wild type (ln ratio); higher = more splicing; Tetrahymena group I intron in knt gene, E. coli kanamycin selection, DiMSum; sequences stand for … in CUCUCU…GGAGGGAAAAGUUAUCAGGCAUGCACCUGGUAGCUAGUCUUUAAACCAAUAGAUUGCAUCGGUUUAAAAGGCAAGACCGUCAAAUUGCGGGAAAGGGGUCAACAGCCGUUCAGUACCAAGUCUCAGGGGAAACUUUGAGAUGGCCUUGCAAAGGGUAUGGUAAUAAGCUGACGGACAUGGUCCUAACCACGCAGCCAAGUCCUAAGUCAACAGAUCUUCUGUUGAUAUGGAUGCAGUUCACAGACUAAAUGUCGGUCGGGGAAGAUGUAUUCUUCUCAUAAGAUAUAGUCGGACCUCUCCUUAAUGGGAGCUAGCGGAUGAAGUGAUGCAACACUGGAGCCGCUGGGAACUAAUUUGUAUGCGAAAGUAUAUUGAUUAGUUUUGGAGUACUCGUGGUCG
An outline of the steps: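 DiMSum derived fitness as the error-weighted combination of fold changes across replicates, kanamycin versus no kanamycin, normalised to wild type. E. coli BL21(DE3) held the library, which randomised all eight P1ex-region intron nucleotides within the knt kanamycin-resistance gene on pET-22b(+). Six replicate transformations grew overnight at 37°C or 30°C on LB agar with or without 25 μg/mL kanamycin, also containing 100 μg/mL carbenicillin, 50 μM IPTG and 0.2% rhamnose, and pooled colonies were amplicon-sequenced on an Illumina HiSeq 2500.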

± gives the uncertainty stated by the source.

As for GCAAAGCAAUAUUACGUAGU, the “self-splicing fitness (ln)” value was -2.09 ± 0.11 (30 °C) and -1.14 ± 0.15 (37 °C).

Regarding CGAUAGCAAUAUUACGCUAC, the “self-splicing fitness (ln)” value (30 °C) is -2.95 ± 0.29.

For AGUCAGCAAUAUUACGUUAA, the “self-splicing fitness (ln)” value (30 °C) was -3.47 ± 0.18 and the “self-splicing fitness (ln)” value (37 °C) was -1.77 ± 0.12.

Turning to AACGAGCAAUAUUACGUCGG, the “self-splicing fitness (ln)” value was -3.25 ± 0.26 (30 °C) and -0.594 ± 0.15 (37 °C).

As to CUGUAGCAAUAUUACGACAG, the “self-splicing fitness (ln)” value is, setting by setting: (30 °C) -4.61 ± 0.3; (37 °C) -1.97 ± 0.21.

Consider AUUCAGCAAUAUUACGGAUA, for which the “self-splicing fitness (ln)” value runs as follows: (30 °C) -1.72 ± 0.17; (37 °C) -1.17 ± 0.14.

Turning to GGUUAGCAAUAUUACGGACG, the “self-splicing fitness (ln)” value by setting is: (30 °C) 0.908 ± 0.17; (37 °C) -0.388 ± 0.22.

In the case of UAGGAGCAAUAUUACGUCAC, the “self-splicing fitness (ln)” value by setting is: (30 °C) -3.99 ± 0.16; (37 °C) -3.35 ± 0.21.

Regarding GACGAGCAAUAUUACGCGAU, the “self-splicing fitness (ln)” value (30 °C) was -2.42 ± 0.26 and the “self-splicing fitness (ln)” value (37 °C) is -2.36 ± 0.45.

Regarding UGAUAGCAAUAUUACGCUGC, the “self-splicing fitness (ln)” value reads like this: (30 °C) -3.67 ± 0.31; (37 °C) -2.61 ± 0.48.

For the sequence GCAAAGCAAUAUUACGACUA, the “self-splicing fitness (ln)” value was -0.955 ± 0.05 (30 °C) and -0.475 ± 0.055 (37 °C).

GAUAAGCAAUAUUACGCCGG: the “self-splicing fitness (ln)” value is -1.66 ± 0.2 (30 °C) and -1.06 ± 0.14 (37 °C).

For the sequence ACCUAGCAAUAUUACGAGUG, the “self-splicing fitness (ln)” value (30 °C) is -1.43 ± 0.077 and the “self-splicing fitness (ln)” value (37 °C) is -0.982 ± 0.092.

In the case of UUAAAGCAAUAUUACGUGUG, the “self-splicing fitness (ln)” value is -0.972 ± 0.045 (30 °C) and -0.4 ± 0.06 (37 °C).

For GCCGAGCAAUAUUACGCCAC, under “30 °C”, the “self-splicing fitness (ln)” value was -2.11 ± 0.34.

Turning to CCCUAGCAAUAUUACGAAUG, under “30 °C”, the “self-splicing fitness (ln)” value is -4.25 ± 0.46.

In the case of CUGAAGCAAUAUUACGACGA, the “self-splicing fitness (ln)” value is, setting by setting: (30 °C) -1.04 ± 0.097; (37 °C) -0.00885 ± 0.14.

With AUCCAGCAAUAUUACGGUUU, the “self-splicing fitness (ln)” value is, setting by setting: (30 °C) -1.04 ± 0.05; (37 °C) -0.324 ± 0.068.

Take CCAGAGCAAUAUUACGAAGA: the “self-splicing fitness (ln)” value runs as follows: (30 °C) -3.48 ± 0.31; (37 °C) -2.84 ± 0.43.

Take AUGGAGCAAUAUUACGUGCC: the “self-splicing fitness (ln)” value (30 °C) was -2.59 ± 0.25 and the “self-splicing fitness (ln)” value (37 °C) was -2.25 ± 0.45.

In the case of GAUAAGCAAUAUUACGGGUC, the “self-splicing fitness (ln)” value by setting is: (30 °C) -3.26 ± 0.14; (37 °C) -1.81 ± 0.13.

As to AGACAGCAAUAUUACGCGGG, the “self-splicing fitness (ln)” value runs as follows: (30 °C) -3.46 ± 0.2; (37 °C) -2.62 ± 0.18.

As for AUUGAGCAAUAUUACGUAAC, the “self-splicing fitness (ln)” value (30 °C) is -1.3 ± 0.3 and the “self-splicing fitness (ln)” value (37 °C) is -1.53 ± 0.31.

As for CACCAGCAAUAUUACGAGAU, the “self-splicing fitness (ln)” value is -3.87 ± 0.17 (30 °C) and -2.42 ± 0.16 (37 °C).

As to UUCGAGCAAUAUUACGAGGU, the “self-splicing fitness (ln)” value is, setting by setting: (30 °C) -2.94 ± 0.48; (37 °C) -1.52 ± 0.43.

Take CGUUAGCAAUAUUACGAUUG: the “self-splicing fitness (ln)” value runs as follows: (30 °C) -0.332 ± 0.073; (37 °C) -0.316 ± 0.084.

AGAGAGCAAUAUUACGUCUU: the “self-splicing fitness (ln)” value runs as follows: (30 °C) -2.88 ± 0.19; (37 °C) -2 ± 0.18.

Consider ACAAAGCAAUAUUACGUAAG, for which the “self-splicing fitness (ln)” value (30 °C) was -1.19 ± 0.056 and the “self-splicing fitness (ln)” value (37 °C) was -0.79 ± 0.069.

AGGAAGCAAUAUUACGGGCG: the “self-splicing fitness (ln)” value reads like this: (30 °C) -0.564 ± 0.11; (37 °C) -0.865 ± 0.15.

For AUGUAGCAAUAUUACGGUAC, the “self-splicing fitness (ln)” value runs as follows: (30 °C) -3.47 ± 0.38; (37 °C) -1.89 ± 0.3.

For GUGUAGCAAUAUUACGCCCA, the “self-splicing fitness (ln)” value (37 °C) is -0.199 ± 0.35.

Consider AAGAAGCAAUAUUACGGGUG, for which the “self-splicing fitness (ln)” value (30 °C) was -1.65 ± 0.072 and the “self-splicing fitness (ln)” value (37 °C) is -1.12 ± 0.086.

With AUCUAGCAAUAUUACGGGGC, the “self-splicing fitness (ln)” value (30 °C) is -2.42 ± 0.47.

With UGAAAGCAAUAUUACGACAG, the “self-splicing fitness (ln)” value (30 °C) was -0.875 ± 0.1 and the “self-splicing fitness (ln)” value (37 °C) is -0.652 ± 0.13.

For the sequence CUUCAGCAAUAUUACGGGCC, the “self-splicing fitness (ln)” value (30 °C) was -1.78 ± 0.22.

Take CAACAGCAAUAUUACGGCAU: the “self-splicing fitness (ln)” value runs as follows: (30 °C) -3.38 ± 0.12; (37 °C) -1.11 ± 0.09.

GACCAGCAAUAUUACGGUUU: the “self-splicing fitness (ln)” value was -2.44 ± 0.083 (30 °C) and -0.744 ± 0.079 (37 °C).

With CAAGAGCAAUAUUACGAGUU, the “self-splicing fitness (ln)” value was -2.81 ± 0.13 (30 °C) and -2.82 ± 0.18 (37 °C).

For the sequence AUACAGCAAUAUUACGGCAC, the “self-splicing fitness (ln)” value reads like this: (30 °C) -1.18 ± 0.087; (37 °C) -0.127 ± 0.12.

For GCGUAGCAAUAUUACGGACG, the “self-splicing fitness (ln)” value by setting is: (30 °C) -3.14 ± 0.21; (37 °C) -2.1 ± 0.22.

With CCCAAGCAAUAUUACGAGGU, the “self-splicing fitness (ln)” value is -3.16 ± 0.091 (30 °C) and -2.08 ± 0.086 (37 °C).

For the sequence CUAGAGCAAUAUUACGCCUG, the “self-splicing fitness (ln)” value (30 °C) was -0.0979 ± 0.087 and the “self-splicing fitness (ln)” value (37 °C) is 0.825 ± 0.12.

Turning to GCAAAGCAAUAUUACGUGCA, the “self-splicing fitness (ln)” value was -1.62 ± 0.099 (30 °C) and -0.826 ± 0.1 (37 °C).

As to AGGUAGCAAUAUUACGGGUU, the “self-splicing fitness (ln)” value was -2.347 ± 0.017 (30 °C) and -1.72 ± 0.035 (37 °C).

Turning to CCUCAGCAAUAUUACGCCAG, the “self-splicing fitness (ln)” value is -3.22 ± 0.16 (30 °C) and -0.883 ± 0.13 (37 °C).

On to UGGAAGCAAUAUUACGGUUU, for which the “self-splicing fitness (ln)” value is, setting by setting: (30 °C) -4.66 ± 0.34; (37 °C) -2.59 ± 0.21.

Regarding CACCAGCAAUAUUACGUUAA, the “self-splicing fitness (ln)” value was -3.35 ± 0.095 (30 °C) and -2.37 ± 0.11 (37 °C).

GACCAGCAAUAUUACGCCCA: the “self-splicing fitness (ln)” value was -0.923 ± 0.16 (30 °C) and 0.179 ± 0.19 (37 °C).

Turning to AGUCAGCAAUAUUACGCAGU, the “self-splicing fitness (ln)” value is -1.89 ± 0.23 (30 °C) and -0.11 ± 0.17 (37 °C).

Regarding CCGUAGCAAUAUUACGCUUU, the “self-splicing fitness (ln)” value runs as follows: (30 °C) -3.52 ± 0.43; (37 °C) -2.23 ± 0.49.

For the sequence GCGAAGCAAUAUUACGAAUG, the “self-splicing fitness (ln)” value reads like this: (30 °C) -1.95 ± 0.15; (37 °C) -0.756 ± 0.17.

As for UGAAAGCAAUAUUACGAUUU, the “self-splicing fitness (ln)” value is, setting by setting: (30 °C) -1.08 ± 0.06; (37 °C) -0.463 ± 0.077.

With GAGUAGCAAUAUUACGGAGC, the “self-splicing fitness (ln)” value reads like this: (30 °C) -2.75 ± 0.23; (37 °C) -1.8 ± 0.27.

With CGUCAGCAAUAUUACGAAAC, the “self-splicing fitness (ln)” value was -3.63 ± 0.32 (30 °C) and -1.6 ± 0.32 (37 °C).

As to GUGCAGCAAUAUUACGGGCA, the “self-splicing fitness (ln)” value is, setting by setting: (30 °C) -2.08 ± 0.15; (37 °C) -1.23 ± 0.15.

For the sequence GUCAAGCAAUAUUACGAGCA, the “self-splicing fitness (ln)” value is -1 ± 0.35 (30 °C) and -2.29 ± 0.28 (37 °C).

Take CCGCAGCAAUAUUACGAUCA: the “self-splicing fitness (ln)” value is -2.72 ± 0.22 (30 °C) and -1.85 ± 0.27 (37 °C).

GUAAAGCAAUAUUACGUGGC: the “self-splicing fitness (ln)” value runs as follows: (30 °C) -3.42 ± 0.18; (37 °C) -2.48 ± 0.2.

As to UGGAAGCAAUAUUACGAGGU, the “self-splicing fitness (ln)” value reads like this: (30 °C) -2.77 ± 0.42; (37 °C) -2.08 ± 0.4.

For the sequence UGAUAGCAAUAUUACGUAUA, the “self-splicing fitness (ln)” value reads like this: (30 °C) -1.17 ± 0.18; (37 °C) -1.53 ± 0.19.

Take CCUGAGCAAUAUUACGAUGU: the “self-splicing fitness (ln)” value by setting is: (30 °C) -1.94 ± 0.084; (37 °C) -1.71 ± 0.098.

Regarding CUCAAGCAAUAUUACGCAGC, the “self-splicing fitness (ln)” value is, setting by setting: (30 °C) -4.03 ± 0.43; (37 °C) -1.9 ± 0.44.
